Measurements from patent US20150299277A1, “AGENT FOR TREATING OR PREVENTING SYSTEMIC INFLAMMATORY RESPONSE SYNDROME” (THE UNIVERSITY OF TOKYO, priority 2012, published 2015).
Entries after “also recorded” stand apart in the source; their conditions may differ.

What was measured:
histone H3 = target: T1, histone H3 (Homo sapiens, UniProt P68431); assay: ELISA binding assay; conditions: immobilized recombinant histone, absorbance at 450 nm
T1 construct: purchased NEB
Procedure: (§1) Recombinant human histone (NEB) was adjusted to a concentration of 1 μg/mL in TBS, added to a 96 well ELISA plate, and immobilized at 4° C. overnight. The solution was discarded, a blocking buffer (TBS, 0.1% Triton-X100, 1% BSA) was added, and the plate was incubated at room temperature for 2 hr. The plate was washed four times with a wash buffer (TBS, 0.1% Triton-X100), recombinant PTX3 diluted to various concentrations with the blocking buffer was added to each well, and reacted at room temperature for 1 hr. After washing four times with the wash buffer, HRP-labeled antibody diluted with the blocking buffer was added, and reacted at room temperature for 1 hr. After washing four times with the wash buffer, TMB solution was added to carry out a color development reaction for 30 min, and the absorbance at 450 nm was measured. Assay was performed using all the buffers containing 4 mM CaCl2 or 4 mM EDTA.
(§2) The binding level between immobilized each recombinant histone and tag-free recombinant human PTX3 (rhPTX3) was measured by binding assay (ELISA). For the detection, HRP-labeled anti-PTX3 monoclonal antibody (PPZ1228) was used. ELISA was performed with duplicate wells for each point, and means and standard deviations were calculated from three independent experiments.
as §2, with “a tagged” for “tag-free recombinant”, “fragment” for “(rhPTX3)”, “For” for “For the”, “anti-His (6×His)” for “anti-PTX3 monoclonal”, “antibody” for “antibody (PPZ1228)”

histone H1 = target: T2, histone H1 (Homo sapiens, UniProt P07305); assay: ELISA binding assay; conditions: immobilized recombinant histone, absorbance at 450 nm
T2 construct: purchased NEB
T2 sequence (P07305 whole entry): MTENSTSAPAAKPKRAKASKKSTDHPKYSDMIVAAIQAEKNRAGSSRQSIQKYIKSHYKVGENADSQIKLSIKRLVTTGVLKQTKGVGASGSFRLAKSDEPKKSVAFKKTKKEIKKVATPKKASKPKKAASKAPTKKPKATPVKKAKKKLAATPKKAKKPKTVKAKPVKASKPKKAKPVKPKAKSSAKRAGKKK
Procedure: as §1, §2
as §2, with “a tagged” for “tag-free recombinant”, “fragment” for “(rhPTX3)”, “For” for “For the”, “anti-His (6×His)” for “anti-PTX3 monoclonal”, “antibody” for “antibody (PPZ1228)”

fragment H3-8 on HUVEC = assay: Suppression of cytotoxic activity of histone fragment on HUVEC; format: cell-based, human; conditions: fragment 250 μg/mL; full-length PTX3 at 80 μg/mL; HUVEC 1 hr
Procedure: (§3) Then, a suppressive effect of PTX3 on the cytotoxic activity of fragments […], H3-8, H3-11 and H4-9 was evaluated.
(§4) In the same manner as in FIGS. 7B-D, a suppressive effect of the N-terminal domain of PTX3 on the cytotoxic activity of histone H3 and H4 fragments was evaluated.

fragment H3-11 on HUVEC = assay: as above; format: cell-based, human; conditions: fragment 250 μg/mL; full-length PTX3 at 80 μg/mL; HUVEC 1 hr
Procedure: as §3, §4

fragment H3-6 on HUVEC = assay: as above; format: cell-based, human; conditions: fragment 250 μg/mL; full-length PTX3 at 80 μg/mL; HUVEC 1 hr
Procedure: as §3, §4

fragment H4-9 on HUVEC = assay: as above; format: cell-based, human; conditions: fragment 250 μg/mL; full-length PTX3 at 80 μg/mL; HUVEC 1 hr
Procedure: as §3, §4

[1] = system: Calf Thymus Histones on HUVEC; assay: Cytotoxic assay: suppression of histone cytotoxicity on HUVEC; format: cell-based, human; conditions: 100 μg/mL Calf Thymus Histones, 40 μg/mL protein, 1 hr, PI staining, FACS
Procedure: After culturing for 1 hr in a medium concurrently containing 100 μg/mL Calf Thymus Histones and APC (200 nM), PTX3 (40 μg/mL), CRP (40 μg/mL) or SAP (40 μg/mL), the level of toxic activity was measured by FACS.
Normal human umbilical vein endothelial cells (HUVECs) were cultured in EGM2 medium (Clonetics). The cells after culture were washed with PBS, added with Opti-MEM medium containing an product of incubation of activated protein C (APC), PTX3, C reactive protein (CRP) or Serum amyloid P component (SAP) with histone for 1 hr, and the cells were further cultured for 1 hr. Propidium iodide (PI) was added to the medium after culture at a final concentration of 10 μg/mL, and the cells were stained for 10 min. The cells were washed with PBS, detached and analyzed by flow cytometry.
The histone cytotoxicity on HUVEC was evaluated by propidium iodide (PI) staining.
Lastly, capacity of suppressing the cytotoxic activity of histone was confirmed. Since this experiment requires a certain amount of protein and an endotoxin-elimination as treatment, a protein was expressed and purified at a 500 mL culture scale, and subjected to an endotoxin-elimination treatment (FIG. 18). In the case of PTX3 N-terminal domain, about 10 mg was obtained at a 500 mL culture scale, and a loss by the endotoxin-elimination treatment was scarcely observed. […] A capacity of fragment proteins obtained at a 500 mL scale on HUVEC to suppress histone cytotoxicity was studied. […] In consideration of the experiments relating to the binding and aggregation, all fragments were considered to possibly have a certain level of suppressive capacity.

Calf Thymus Histones = assay: Aggregation with histone, absorbance at 310 nm; format: binding; conditions: mixture with Calf Thymus Histones
Procedure: The lower left figure and the lower right figure show the measurement results of absorbance at 310 nm of a mixture of a wild-type or oligomer formation capacity-deficient mutant of PTX3 N-terminal domain having each concentration and 0.1 mg/mL Calf Thymus Histones at 1:1 vol.
The aggregation activity of PTX3 and other pentraxins to histone was evaluated. Calf Thymus Histones (50 μg/mL) were mixed with a PTX3 fragment or the other pentraxin at each concentration, and the absorbance at the wavelength of 310 nm was measured. Before mixing, samples were dialyzed against 4 mM CaCl2-containing TBS.

each histone [2] = assay: ELISA binding assay; design: species or system human; conditions: buffers containing 4 mM CaCl2 or 4 mM EDTA
Procedure: as §1, with “Assay was performed using all the buffers containing 4 mM CaCl2 or 4 mM EDTA.” left out
The binding level between immobilized each recombinant histone and tag-free recombinant human PTX3 (rhPTX3) was measured by binding assay (ELISA). […] ELISA was performed with duplicate wells for each point, and means and standard deviations were calculated from three independent experiments.
The binding level between immobilized each recombinant histone and a tagged human PTX3 fragment was measured by binding assay (ELISA). […] ELISA was performed with duplicate wells for each point, and means and standard deviations were calculated from three independent experiments.

each histone variant = assay: Aggregation of each histone variant and PTX3 fragment, absorbance at 310 nm; format: binding; conditions: histone variant 50 μg/mL, PTX3 fragment 30 μg/mL
Procedure: Each histone variant (50 μg/mL) and each PTX3 fragment (30 μg/mL) were mixed, and the absorbance at the wavelength of 310 nm was measured. Before mixing, samples were dialyzed against 4 mM CaCl2-containing TBS.

each histone [3] = assay: BIAcore / surface plasmon resonance (SPR) measurement; format: binding, human; conditions: immobilized recombinant histone
Procedure: For the measurement, BIAcore 3000 or T200 (GE Healthcare) was used. Recombinant human histone was immobilized on CM5 sensor chip by an amine coupling kit (GE Healthcare). The reaction with recombinant PTX3 was performed using a buffer (150 mM NaCl, 20 mM HEPES, 0.005% surfactant P20 (pH 7.4)) at a flow rate of 20 μl/min. Measurement was performed using the buffer containing […]. The sensor chip was regenerated in IM sodium acetate (10 μL, pH 7.2) and 10 mM NaOH (10 μL).
The binding of immobilized each recombinant histone, and Myc- and His-tagged human PTX3 fragment was measured by surface plasmon resonance (SPR). The highest concentration of each PTX3 was as follows. full-length PTX3: 1 nM, N-terminal domain of PTX3: 5 nM, C-terminal domain of PTX3: 50 nM. The assay buffer contained 4 mM CaCl2 (Ca^2+) or 4 mM EDTA/EGTA. The affinity measured by SPR was calculated from three experiments.

## full-length PTX3: full-length human pentraxin 3 (1-381 amino acids, SEQ ID NO: 2), used tag-free or Myc- and His-tagged
Histone H3
  binding to histone H3 (binding assay): strong binding affinity
Histone H1
  binding to histone H1 (binding assay): strong binding affinity
Fragment H3-8 on HUVEC
  suppressive effect on cytotoxic activity of fragment H3-8: neutralized
Fragment H3-11 on HUVEC
  suppressive effect on cytotoxic activity of fragment H3-11: neutralized
Fragment H3-6 on HUVEC
  suppressive effect on cytotoxic activity of fragment H3-6: neutralized
Fragment H4-9 on HUVEC
  suppressive effect on cytotoxic activity of fragment H4-9: neutralized
[1]
  suppression of toxic activity of Calf Thymus Histones on HUVEC: suppress toxic activity of histone on HUVEC
[1]; listed as PTX3
  suppression of toxic activity of Calf Thymus Histones on HUVEC: suppresses cytotoxic activity of extracellular histone on HUVEC to the same level as APC
Calf Thymus Histones
  aggregation with Calf Thymus Histones, absorbance at 310 nm: showed an aggregation activity with histone
Each histone [2]
  influence of calcium ion on binding to each histone: stronger binding was found in the presence of calcium ion
Each histone variant
  aggregation with each histone variant, absorbance at 310 nm: aggregated
Each histone [3]
  affinity for each histone by SPR: full-length PTX3>N-terminal domain>C-terminal domain
Each histone [3]; listed as PTX3
  affinity for each histone by SPR: extremely high

## N-terminal domain of PTX3: N-terminal domain human PTX3 (18-178 amino acids, SEQ ID NO: 3), tagged, expressed in CHO cells or Escherichia coli
Histone H3
  binding to histone H3 (binding assay): equivalent to that of the full-length PTX3
Histone H3; listed as N-terminal domain
  binding to histone H3 (binding assay): strong bindability
Histone H1
  binding to histone H1 (binding assay): equivalent to that of the full-length PTX3
Histone H1; listed as N-terminal domain
  binding to histone H1 (binding assay): strong bindability
Fragment H3-8 on HUVEC
  suppressive effect on cytotoxic activity of fragment H3-8: neutralized
Fragment H3-11 on HUVEC
  suppressive effect on cytotoxic activity of fragment H3-11: neutralized
Fragment H3-6 on HUVEC
  suppressive effect on cytotoxic activity of fragment H3-6: neutralized
Fragment H4-9 on HUVEC
  suppressive effect on cytotoxic activity of fragment H4-9: neutralized
[1]
  suppression of toxic activity of Calf Thymus Histones on HUVEC: suppress toxic activity of histone on HUVEC; also recorded: suppressed
Calf Thymus Histones
  aggregation with Calf Thymus Histones, absorbance at 310 nm: showed an aggregation activity with histone
Calf Thymus Histones; listed as N-terminal domain
  aggregation with Calf Thymus Histones, absorbance at 310 nm: an aggregation reaction
Each histone [2]
  influence of calcium ion on binding to each histone: stronger binding was found in the presence of calcium ion
Each histone variant
  aggregation with each histone variant, absorbance at 310 nm: aggregated
Each histone [3]
  affinity for each histone by SPR: full-length PTX3>N-terminal domain>C-terminal domain
